The text below walks through data of paper PMC12478261.

In data set [1] the target is T1, mCRP (monomeric C-reactive protein) (UniProt P02741 19-224).
T1 sequence: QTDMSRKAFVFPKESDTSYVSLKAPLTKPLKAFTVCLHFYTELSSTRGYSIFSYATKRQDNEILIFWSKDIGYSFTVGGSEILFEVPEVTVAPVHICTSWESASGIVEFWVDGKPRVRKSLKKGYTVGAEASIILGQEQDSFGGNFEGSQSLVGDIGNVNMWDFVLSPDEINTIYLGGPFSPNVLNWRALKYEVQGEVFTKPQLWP
Briefly: SPR. (SPR reads the build-up and loss of mass on a sensor chip optically.)

Data set [2] addresses T2, nCRP (native pentameric C-reactive protein) (UniProt P02741 19-224).
T2 sequence: T1 sequence
As to the kind of experiment: bead pull-down, Qubit ssDNA quantification.

B1: ApmCRP3 (ssDNA)
DNA: CCAATGGCCCTAGGGCTGCAAATCGCTGCC
The Kd is the constant that tells how readily two partners part at equilibrium. Low readings indicate tighter binding, high ones weaker binding. Take B1: the dissociation constant (Kd) in data set [1] was determined as 400 nM.

B2: ApmCRP4 (ssDNA)
DNA: TTGACCCTTTAAGGTCGTCCGGAAACGGGC
As to B2, in data set [2], the binding result is on record as “no binding”.
